Assay results published in PMC3507513 (Molecular cell, 2010).

T1: HET-S(1–227) (Podospora anserina), B2ACC7
T1 chain: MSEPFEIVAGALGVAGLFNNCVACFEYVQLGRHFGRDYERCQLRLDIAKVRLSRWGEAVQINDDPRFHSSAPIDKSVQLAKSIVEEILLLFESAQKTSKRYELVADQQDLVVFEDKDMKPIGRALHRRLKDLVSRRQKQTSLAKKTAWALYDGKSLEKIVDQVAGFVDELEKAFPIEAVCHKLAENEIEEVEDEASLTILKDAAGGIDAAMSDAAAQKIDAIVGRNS

B1: HET-s(1–227) (domain or fragment, Podospora anserina, UniProt Q03689 1-227, looked up)
chain: MSEPFGIVAGALNVAGLFNNCVDCFEYVQLGRPFGRDYERCQLRLDIAKARLSRWGEAVKINDDPRFHSDAPTDKSVQLAKSIVEEILLLFESAQKTSKRYELVADQQDLVVFEDKDMKPIGRALHRRLNDLVSRRQKQTSLAKKTAWALYDGKSLEKIVDQVARFVDELEKAFPIEAVCHKLAEIEIEEVEDEASLTILKDAAGGIDAAMSDAAAQKIDAIVGRNS
B2: HET-S(1–227), B2ACC7 1-227 (domain or fragment)
chain: T1 chain

Tests used:
NMR titration = target: the molecule itself; assay: NMR titration
[1] = target: T1, HET-S(1–227) (Podospora anserina), …; assay: […]; conditions: remark: other sources report otherwise
[2] = target: T1, HET-S(1–227) (Podospora anserina), …; assay: NMR titration; conditions: remark: other sources report otherwise

Row | Binder | Kd (NMR titration) [µM] | stoichiometry N [1] | Kd [2] [µM]
1 | B1 | 320 ± 37 |  | 
2 | B2 |  | 2 | 78
